Reference: patent US20230060095A1 (Regeneron, published 2023)
Positions count from the first letter of the chain named.

B1: PN42365 (TCR, V domains shown)
V domain 1: TQLLEQSPQFLSIQEGENLTVYCNSSSVFSSLQWYRQEPGEGPVLLVTVVTGGEVKKLKRLTFQFGDARKDSSLHITAAQPGDTGLYLCAANGGSQGNLIFGKGTKLSVKP
V domain 2: DAGVTQSPTHLIKTRGQQVTLRCSPKSGHDTVSWYQQALGQGPQFIFQYYEEEERQRGNFPDRFSGHQFPNYSSELNVNALLLGDSALYLCASSLQDYGYTFGSGTRLTVV
B2: PN42879 (TCR, V domains shown)
V domain 1: TQLLEQSPQFLSIQEGENLTVYCNSSSVFSSLQWYRQEPGEGPVLLVTVVTGGEVKKLKRLTFQFGDARKDSSLHITAAQPGDTGLYLCAGEDFGNEKLTFGTGTRLTIIP
V domain 2: B1 V domain 2 with L95W, Q96A
B3: PN42483 (TCR, V domains shown)
V domain 1: B1 V domain 1 with A91G, N92D
V domain 2: EAQVTQSPRYLITVTGKKLTVTCSQNMNHEYMSWYRQDPGLGLRQIYYSMNVEVTDKGDVPEGYKVSRKEKRNFPLILESPSPNQTSLYFCASSLGGADEKLFFGSGTQLSVL
B4: PN42378 (TCR, V domains shown)
V domain 1: DAKTTQPNSMESNEEEPVHLPCNHSTISGTDYIHWYRQLPSQGPEYVIHGLTSNVNNRMASLAIAEDRKSSTLILHRSTLRDAAVYYCILRPDSWGKFQFGAGTQVVVTP
V domain 2: B1 V domain 2
notes: stained with anti-mouse TCR constant region antibody H57-597) and full-length chains were expressed on CHO cells
B5: PN42776 (TCR, V domains shown)
V domain 1: B4 V domain 1
V domain 2: B1 V domain 2 with L95W, Q96T
notes: as for B4
B6: PN42689 (TCR, V domains shown)
V domain 1: B1 V domain 1 with A91E, N92D
V domain 2: B1 V domain 2 with Q96S
B7: PN42455 (TCR, V domains shown)
V domain 1: B4 V domain 1
V domain 2: B1 V domain 2 with Q96V
notes: as for B4
B8: PN42840 (TCR, V domains shown)
V domain 1: B1 V domain 1 with A91E, N92G
V domain 2: B1 V domain 2 with L95W, Q96T
B9: PN42386 (TCR, V domains shown)
V domain 1: B1 V domain 1 with A91T
V domain 2: B1 V domain 2
B10: PN42498 (TCR, V domains shown)
V domain 1: B1 V domain 1 with A91G, N92D
V domain 2: B1 V domain 2 with Q96V
B11: PN42780 (TCR, V domains shown)
V domain 1: TQLLEQSPQFLSIQEGENLTVYCNSSSVFSSLQWYRQEPGEGPVLLVTVVTGGEVKKLKRLTFQFGDARKDSSLHITAAQPGDTGLYLCAGGTSGTYKYIFGTGTRLKVLA
V domain 2: EAQVTQNPRYLITVTGKKLTVTCSQNMNHEYMSWYRQDPGLGLRQIYYSMNVEVTDKGDVPEGYKVSRKEKRNFPLILESPSPNQTSLYFCASSPGTPNYGYTFGSGTRLTVV
B12: PN42706 (TCR, V domains shown)
V domain 1: GIQVEQSPPDLILQEGANSTLRCNFSDSVNNLQWFHQNPWGQLINLFYIPSGTKQNGRLSATTVATERYSLLYISSSQTTDSGVYFCAVEASGTYKYIFGTGTRLKVLA
V domain 2: B11 V domain 2 with P95W, P98G, N99G
B13: PN42562 (TCR, V domains shown)
V domain 1: B11 V domain 1 with T93P
V domain 2: B11 V domain 2
B14: PN42442 (TCR, V domains shown)
V domain 1: B11 V domain 1
V domain 2: B11 V domain 2 with P98A
B15: PN42561 (TCR, V domains shown)
V domain 1: DAKTTQPNSMESNEEEPVHLPCNHSTISGTDYIHWYRQLPSQGPEYVIHGLTSNVNNRMASLAIAEDRKSSTLILHRATLRDAAVYYCILRDGTGNQFYFGTGTSLTVIP
V domain 2: EAQVTQNPRYLITVTGKKLTVTCSQNMNHEYMSWYRQDPGLGLRQIYYSMNVEVTDKGDVPEGYKVSRKEKRNFPLILESPSPNQTSLYFCASSLWTGGGYTFGSGTRLTVV
B16: PN42683 (TCR, V domains shown)
V domain 1: DAKTTQPNSMESNEEEPVHLPCNHSTISGTDYIHWYRQLPSQGPEYVIHGLTSNVNNRMASLAIAEDRKSSTLILHRATLRDAAVYYCILRDREYGNKLVFGAGTILRVKS
V domain 2: B15 V domain 2
B17: PN42655 (TCR, V domains shown)
V domain 1: B4 V domain 1
V domain 2: B15 V domain 2
notes: as for B4
B18: PN42677 (TCR, V domains shown)
V domain 1: B15 V domain 1
V domain 2: B15 V domain 2 with L95S, W96T, T97G, G98Y, G99Y
B19: PN42654 (TCR, V domains shown)
V domain 1: B15 V domain 1 with T94I
V domain 2: B15 V domain 2
B20: PN42610 (TCR, V domains shown)
V domain 1: QKEVEQNSGPLSVPEGAIASLNCTYSDRGSQSFFWYRQYSGKSPELIMSIYSNGDKEDGRFTAQLNKASQYVSLLIRDSQPSDSATYLCAGNYGQNFVFGPGTRLSVLP
V domain 2: AAGVIQSPRHLIKEKRETATLKCYPIPRHDTVYWYQQGPGQDPQFLISFYEKMQSDKGSIPDRFSAQQFSDYHSELNMSSLELGDSALYFCASSIGLNQPQHFGDGTRLSIL
B21: PN42750 (TCR, V domains shown)
V domain 1: B4 V domain 1
V domain 2: DVKVTQSSRYLVKRTGEKVFLECVQDMDHENMFWYRQDPGLGLRLIYFSYDVKMKEKGDIPEGYSVSREKKERFSLILESASTNQTSMYLCASSTVRQGNYGYTFGSGTRLTVV
notes: as for B4
B22: PN42476 (TCR)
TCR alpha: B4 V domain 1
TCR beta: EAQVTQSPRYLITVTGKKLTVTCSQNMDHEYMSWYRQDPGLGLRQIYYSMNVEVTDKGDVPEGYKVPRKEKRSFPLILESPCCSQTPLYLCASSLGGVDERLSFGSGTQLSVL
notes: as for B4

Legend:
[1] = target: HLA-A2/PRAME (425-433) on HLA-A2*01 HEK293T cells pulsed with PRAME 425-433 peptide (human); test: cell-based or functional assay
[2] = target: T1, soluble HLA:A2:PRAME (425-433) tetramer (human); test: flow cytometry, soluble pMHC tetramer on CHO cells expressing the TCR;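 further: CHO cells transfected with vectors encoding full-length paired TCR alpha and beta chains, stained with PRAME/HLA tetramer and read by flow cytometry, each value reflects one listed TCR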
T1 construct: Commercial tetramer (MBL International); construct limits, biotin tag and streptavidin/fluorophore not described; also called PRAME/HLA tetramer reagent; PRAME (425-433)/HLA-A2

[3] = target: T2, peptide on HLA-A*02:01 (human); test: activation reporter or marker
T2 peptide: SLLMWITQC

[4] = target: T3, PRAME peptide on HLA-A*02:01 (human); test: multimer staining
T3 peptide: SLLQHLIGL

Row | Binder | EC50 (µM) of peptide, AP1 luciferase reporter in Jurkat cells expressing the TCR [1] [µM] | Cell Frequency ≥1000 MFI, ≥1% (% tetramer positive cells in the Ag+ gate) [2] [%] | binding result [3] | binding result [4]
1 | B1 | 0.0159 | 95.8 | no recognition | recognises
2 | B2 | – | 93.1 | no recognition | –
3 | B3 | – | 86.4 | no recognition | –
4 | B4 | – | 77.5 | – | recognises
5 | B5 | – | 60.2 | – | recognises
6 | B6 | 0.0095 | 4.92 | no recognition | recognises
7 | B7 | – | 53 | – | recognises
8 | B8 | 0.0309 | 52.5 | no recognition | recognises
9 | B9 | 0.0271 | 82.2 | no recognition | recognises
10 | B10 | 0.00242 | 90.3 | no recognition | recognises
11 | B11 | 1.25 | 4.89 | no recognition | recognises
12 | B12 | 0.727 | 24.7 | no recognition | recognises
13 | B13 | 0.0281 | 92 | no recognition | recognises
14 | B14 | 0.232 | 61.3 | no recognition | recognises
15 | B15 | 0.0137 | 80.2 | no recognition | recognises
16 | B16 | – | 11.1 | no recognition | –
17 | B17 | – | 27 | no recognition | recognises
18 | B18 | – | 25.3 | no recognition | –
19 | B19 | – | 20.1 | no recognition | –
20 | B20 | – | 6.08 | no recognition | –
21 | B21 | – | 40.8 | – | recognises
22 | B22 | – | 54.2 | – | recognises
